Our source for the binding signal values is PMC3428728.

The test system of this data set is hSWI/SNF complex (FLAG-tagged) (Homo sapiens (HeLa)). In words: competition. The following applies: scale: fold preference over macroH2A nucleosome.

With 20/60 H2A nucleosome, the binding signal was 9.
